Measurements taken from US20180072803A1 (MINOMIC INTERNATIONAL, published 2018).

T1: recombinant human GPC-1 produced from NS0 cells (human, UniProt P35052 24-530)
T1 construct: also called GPC-1 NS0; recombinant NS0-produced GPC-1
T1 sequence (looked up): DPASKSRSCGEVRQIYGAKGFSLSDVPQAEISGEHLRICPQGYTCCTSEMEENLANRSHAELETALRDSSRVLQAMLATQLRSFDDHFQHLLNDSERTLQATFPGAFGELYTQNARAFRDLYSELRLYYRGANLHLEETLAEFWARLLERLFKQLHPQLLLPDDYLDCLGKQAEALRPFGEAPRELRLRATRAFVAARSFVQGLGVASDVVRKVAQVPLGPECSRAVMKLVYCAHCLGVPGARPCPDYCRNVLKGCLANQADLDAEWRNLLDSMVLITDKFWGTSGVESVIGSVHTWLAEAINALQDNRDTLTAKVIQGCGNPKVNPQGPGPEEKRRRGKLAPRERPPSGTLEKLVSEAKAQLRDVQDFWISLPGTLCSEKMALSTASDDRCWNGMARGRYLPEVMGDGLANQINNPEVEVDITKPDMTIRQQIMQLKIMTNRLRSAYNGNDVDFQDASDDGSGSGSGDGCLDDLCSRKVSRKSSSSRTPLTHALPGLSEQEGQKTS

T2: MIL-38 antigen (GPC-1) as present in DU-145 and other cell lines (UniProt P35052 24-530)
T2 construct: whole, on cells; In IFA it stood on acetone-fixed cells; in Western blots it stood in membrane protein (MPEK) extracts of the cells; also called GPC-1 antigen
T2 sequence (looked up): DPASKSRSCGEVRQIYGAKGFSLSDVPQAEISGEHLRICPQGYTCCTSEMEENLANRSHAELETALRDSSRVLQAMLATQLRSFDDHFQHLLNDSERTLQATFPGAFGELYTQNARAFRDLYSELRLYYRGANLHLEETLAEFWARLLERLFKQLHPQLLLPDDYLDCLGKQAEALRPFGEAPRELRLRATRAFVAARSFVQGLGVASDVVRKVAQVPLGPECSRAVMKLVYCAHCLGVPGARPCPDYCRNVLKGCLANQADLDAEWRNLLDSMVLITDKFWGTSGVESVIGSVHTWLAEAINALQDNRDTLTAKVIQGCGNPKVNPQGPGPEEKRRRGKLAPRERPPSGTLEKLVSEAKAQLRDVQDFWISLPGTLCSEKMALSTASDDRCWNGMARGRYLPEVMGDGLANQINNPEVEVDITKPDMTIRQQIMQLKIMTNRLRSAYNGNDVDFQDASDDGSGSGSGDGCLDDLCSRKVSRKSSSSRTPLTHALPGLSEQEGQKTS


Legend:
[1] = target: T1, recombinant human GPC-1 produced from …; assay: Western blot, three-antibody detection
Experimental: As a control, murine MIL-38 was detected by goat anti-mouse secondary antibody followed by a sheep-anti-goat HRP antibody. […] The complex was detected using a sheep-anti-goat HRP antibody. […] The complex was detected using a sheep-anti-mouse HRP antibody.
A control western blot using a three antibody detection method was also performed with murine MIL-38. (FIG. 9C).

[2] = target: T2, MIL-38 antigen (GPC-1) as present in …; assay: immunofluorescence assay on DU-145 cells (FIG. 8F)
Experimental: IFA: Cells were grown on coverslips until 75% confluent and placed in 6 well plates. The cells were washed with PBS followed by fixing with acetone. Cells were washed again with PBS followed by incubation with TBS then blocked with PBS containing 5% skim milk. […] Both antibodies were prepared in PBS containing 1% skim milk followed. Washing with PBS was performed between the primary and secondary antibody incubations. After secondary incubation, cells were washed with PBS containing DAPI and visualised for green fluorescence (MIL-38 positive).
A slide with no primary antibody was used as a negative control.

[3] = target: T2, MIL-38 antigen (GPC-1) as present in …; assay: Western blot on DU-145 and C3 extracts (FIG. 2B)
[4] = target: T1, recombinant human GPC-1 produced from …; assay: sandwich ELISA, antibody coated as capture, biotinylated AM-4 as detection (FIG. 6A)
Experimental: Plates were blocked with PBS-Tween (0.1.%) containing 5% skim milk at 37° C. and washed. Antigen (recombinant human GPC-1 produced from NS0 cells) diluted in Buffer II (20 mM HEPES pH 7.5, 0.5 mM EDTA, 0.5% Triton X-100) with the addition of 150 mM NaCl and incubated overnight at 37° C. […] Absorbance was read 450 nm.

binding result [1] | binding result [2] | binding result [3] | binding result [4] | Binder
binds | binds |  |  | Chimeric MIL-38 antibody (Mouse VH-Human CH1-CH3 / Mouse VK-Human CK) (antibody, human IgG1, kappa, Expressed transiently in CHO-3E7 cells and purified on Protein A; also called MIL-38 chimeric antibody) heavy: not shown light: DIQMTQSPASLSASVGETVTITCRASGNVHNYLAWYQQKQGKSPQLLVYTAKTLADGVPSRFSGSGSGTQYSLKINSLQPEDFGTYYCQHFWSNPWTFGGGTKLEIKRTVAAPSVFIFPPSDEQLKSGTASVVCLLNNFYPREAKVQWKVDNALQSGNSQESVTEQDSKDSTYSLSSTLTLSKADYEKHKVYACEVTHQGLSSPVTKSFNRGEC
 |  | binds | binds | AM-4 MIL-38 antibody (AusMAb 4) (antibody, mouse IgG1, kappa, Monoclonal mouse IgG1 kappa; Biotinylated AM-4 was also the detection antibody in the sandwich ELISA; also called monoclonal AM-4 MIL-38) heavy: QIQLVQSGPELKKPGETVKISCKASGYAFTDYSMNWVKQAPGKGLRWMGWINTETGEPTYTDDFKGRFAFSLETSASTAFLQINNLRNEDTATYFCARHYDYGGFPYWGQGTLVTVSAAKTTPPSVYPLAPGSAAQTNSMVTLGCLVKGYFPEPVTVTWNSGSLSSGVHTFPAVLQSDLYTLSSSVTVPSSTWPSETVTCNVAHPASSTKVDKKIVPRDCGCKPCICTVPEVSSVFIFPPKPKDVLTITLTPKVTCVVVDISKDDPEVQFSWFVDDVEVHTAQTQPREEQFNSTFRSVSELPIMHQDWLNGKEFKCRVNSAAFPAPIEKTISKTKGRPKAPQVYTIPPPKEQMAKDKVSLTCMITDFFPEDITVEWQWNGQPAENYKNTQPIMDTDGSYFVYSKLNVQKSNWEAGNTFTCSVLHEGLHNHHTEKSLSHSPGK light: DIQMTQSPASLSASVGETVTITCRASGNVHNYLAWYQQKQGKSPQLLVYTAKTLADGVPSRFSGSGSGTQYSLKINSLQPEDFGTYYCQHFWSNPWTFGGGTKLEIKRADAAPTVSIFPPSSEQLTSGGASVVCFLNNFYPKDINVKWKIDGSERQNGVLNSWTDQDSKDSTYSMSSTLTLTKDEYERHNSYTCEATHKTSTSPIVKSFNRNEC
